Experiment: yeast display, Sf9 membrane polyspecificity reagent, FACS + sequencing; frameworks hold sequencing errors
How it was run: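 Synthetic nanobody libraries on Saccharomyces cerevisiae BJ5465 were galactose-induced for 36–48 hours, stained 1 hour at 4 °C with 10% biotinylated, detergent-solubilized Sf9 membrane reagent and enriched on streptavidin microbeads. FACS then separated cells into low and high (top ~1%) gates by anti-HA (expression) and streptavidin (reagent binding) fluorescence. Genes were colony-PCR amplified, MiSeq 2 × 250 sequenced and CDR-length filtered. A clone's polyreactivity label is that of its gate of origin.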

| Sequence | polyreactivity (PSR sort gate) |
| --- | --- |
| QVQLVESGGGLVQAGGSLRLSCAASGSIFYKYTMGWYRPAPGKERELVAAISRSGGRTYYADSVKGRFTISRDNAKNTVYLQMNSLKPEDTAVYYCARDLKIVEYDYWGQGTQVTVSS | low polyreactivity |
| QVQLVESGGGLVQAGGSLRLSCAASGSIFYLNAMGWYRQAPGKERELVATISNGGSTNYADSVKGRFTISRDNAKNTVYLQMNSLKPEDTAVYYCATGVIREGDYWGQGTKVTVSS | low polyreactivity |
| QVQLVESGGGLVQAGGSLRLSCAASGSIFYLYAMGWYRQAPGKERELVAAITSIGGSTYADSVKGRFTISRDNAKNTVYLQMNSLKPEDTAVYYCNADGLYEKWGPWTVPYYYWGQGTQVTVSS | low polyreactivity |
| QVQLVESGGGLVQAGGSLRLSCAASGSIFYLYAMGWYRQAPGKERELVATISTGSGRTYYADSVKGRFTISRDNAKNTVYLQMNSLKPEDTAVYYCAASRTLRKHRYEYWGQGTEVTVSS | high polyreactivity |
| QVQLVESGGGLVQAGGSLRLSCAASGSIFYPYAMGWYRQAPGKERELVAAISSGGRTYYADSVKGRFTISRDNAKNTVYLQMNSLKPEDTAVYYCAARPKAYGRPPGYYWGQGTQVTVSS | high polyreactivity |
| QVQLVESGGGLVQAGGSLRLSCAASGSIFYPYAMGWYRQATGKERELVAVITDTGSTYYADSVKGRFTISRDNAKNTVYLQMNSLKPEDTAVYYCYRTSYVKTPTKRYNYWGQGTQVTVSS | low polyreactivity |
| QVQLVESGGGLVQAGGSLRLSCAASGSIFYQNAMGWSRQAPGKEWELVAAISWSGGSTYYADSVKGRFTISRDNAKNTDFLQMNSLKPEDTAVYYCNKYVRFRGGAYVTGYDYWGQGTQVTVSS | high polyreactivity |
| QVQLVESGGGLVQAGGSLRLSCAASGSIFYQYAMGWNRQAPGKERELVAVINRSGSSTYYADSVKGRFTISRDNAKNTVYLQMNSLKPEDNAVYYCAAASKYSEYNYWGQGTEVTVSS | high polyreactivity |
| QVQLVESGGGLVQAGGSLRLSCAASGSIFYQYAMGWYRQAPGKEREFVAAITRRGTSTYYADSVKGRFTISRDIAKNTVYLQMNSLKPEDTAVYYCAARYGPNMDYWGQGTQVTVSS | high polyreactivity |
| QVQLVESGGGLVQAGGSLRLSCAASGSIFYRNALGWYRQAPGKERELVAAISSDGSTNYADSVKGRFTISRDNAKNTVYLQLNSLKPEDTAVYYCAAPWTQILDYWGQGTQVTVSS | low polyreactivity |
| QVQLVESGGGLVQAGGSLRLSCAASGSIFYRNAMGCYIQAPGKERELVAAITSSGVSTYYADSVKGRFTISRDNAKNTVYLQMNSLKPEDTAVYYCAARSVYTGRPYYYWGQGTQVTVSS | high polyreactivity |
| QVQLVESGGGLVQAGGSLRLSCAASGSIFYRNAMGWYRQAPGKERELVAAISASGGSTYYADSVKGRFTISRDNAKNTVYLQMNSLNPEDTAFYYCAVEYRKSRSYYPYYYWGQGTQVTVSS | high polyreactivity |
| QVQLVESGGGLVQAGGSLRLSCAASGSIFYRNAMGWYRQAPGKERELVAAISSDGSTNYADSVKGRFTISRDNAKNTVYLQMNSLKPEDTAVYFCAAPWTQILDYWGQGTQVTVSS | low polyreactivity |
| QVQLVESGGGLVQAGGSLRLSCAASGSIFYRNAMGWYRQAPGKERELVAAITSRGGRTYYADSVKGRFTISRDNAKNTVYLQMTSLKPEDTAVYYCAADYRYPAHSYGYWGQGTQVTVSS | high polyreactivity |
| QVQLVESGGGLVQAGGSLRLSCAASGSIFYRNAMGWYRQAPGKERELVAAITWSGVNTYYADSVKGRFTISRDNAKNTVYLQMNSLKPEDTAVYYCAVPSRYWLNRGFDYWGQGTQVTVSS | low polyreactivity |
| QVQLVESGGGLVQAGGSLRLSCAASGSIFYRYAMGGYRQAPGKERELVAAISSRGGSTYYADSVKGRFTISRDTAKNTVYLQMNSLKPEDTAVYYCNKDNHDLELPVEFEYWGQGTQVTVSS | high polyreactivity |
| QVQLVESGGGLVQAGGSLRLSCAASGSIFYRYVMGWYRQAPGKERELVAAITSDGSTNYADSVKGRFTISRDNAKNTVYLQMNSLKPEDTAVYYCNARSYRGRFDYWGQGTQVTVSS | low polyreactivity |
| QVQLVESGGGLVQAGGSLRLSCAASGSIFYSNAMGLSRQAPGKEREWVATITSGDSTNYADSVKGRFTISRDNAKNTVYLQMNSLKPEDTAVYYCAADSSLYEWFDWPWERGQSVESWGQGTQVTVSS | low polyreactivity |
| QVQLVESGGGLVQAGGSLRLSCAASGSIFYSNAMGWYRQAPGKERQLVAAIDSGTSTNYADSVKGRFTISRDNAKNTVYLQMNSLKPEDTAVYYCARLLGPVRDKYDYDYWGQGTQVTVSS | low polyreactivity |
| QVQLVESGGGLVQAGGSLRLSCAASGSIFYSYAMGGYRQAPGKERELVAAITDSGDSTYYADSVKGRFTISRDNAKNTVYLQMNSLKPEDTAVYYCAAGFYPYYYWGQGTQVTVSS | low polyreactivity |
| QVQLVESGGGLVQAGGSLRLSCAASGSIFYSYAMGWYRHAPGKERELVAAISWDASTYYADSVKGRFTISRDNAKNTVYLQMNSLKPEDTAVYYCNADIPYYFVYDAYDFWGQGTQVTVSS | low polyreactivity |
| QVQLVESGGGLVQAGGSLRLSCAASGSIFYSYAMGWYRQAPGKEREFVATITWSGGRTYYADSVKGRFTISRDNAKNTFYLQMNSLKPEDTAVYYCNKRLFPYKGDYWGQGTQVTVSS | low polyreactivity |

| Sequence | polyreactivity (PSR sort gate) |
| --- | --- |
| QVQLVESGGGLVQAGGSLRLSCAASGSIFYSYAMGWYRQAPGKERELVAAITDSGDDTYYADSVKGRFTISRDNAKNTVYLQMNSLKPEDSAVYYCAAEQIYYTSDSSYFVTYDDWGQGTQVSVSS | high polyreactivity |
| QVQLVESGGGLVQAGGSLRLSCAASGSIFYTNAMGWYRPAPGKERELVAAIRTGGSTNYADSVKGRFTISRDNAKNTVYLQMNSLKPEDTAVYYCAAAYGYGHKKYGYWGQATQVTVSS | low polyreactivity |
| QVQLVESGGGLVQAGGSLRLSCAASGSIFYTNAMGWYRQAPGKEMEFVASITYRGSNTYYADSVKGRFTISRDNAKTTVYLQMNSLKPEDTAVYYCGADSFYYRPEYDYWGLGTQVTVSS | low polyreactivity |
| QVQLVESGGGLVQAGGSLRLSCAASGSIFYTNAMGWYRQAPGKERELVAAIRWSGGRTYYADSVKGRFTISRDNAKNTVYLQMNSLKPEDTAVYYCNKVPRTPIPYKYGYWGQGTQVTVSS | high polyreactivity |
| QVQLVESGGGLVQAGGSLRLSCAASGSIFYTYAMGWYRQAPGKERELVAAISSGGSTNYADSVKGRFTISRDNPKNTVYLQMNSLKPEDTAVYYCAAEYTRSFYIYYRFGYWGQGTQVTVSS | high polyreactivity |
| QVQLVESGGGLVQAGGSLRLSCAASGSIFYTYAMGWYRQAPGKERELVAAISSGGSTTYADSVKGRFTISRDNAKNTVYLQMKSLKPEDTAVYYCNTSYRKKKRYYYWGQGTQVTVSS | high polyreactivity |
| QVQLVESGGGLVQAGGSLRLSCAASGSIFYVNAMGWYRQAPGKERELVAAINWSGGRTYYADSVKGRFTISRDTAKNTVYLQMNSLKPEDTAVYYCAATVRRRYERYNYWGQGTQVTVSS | high polyreactivity |
| QVQLVESGGGLVQAGGSLRLSCAASGSIFYVNAMGWYRQAPGKERELVAAISVRGGRTYYADSVKGRFTISRDNAKNTVYLQMNSLKPEDTAVYYCAAKSVYKFGDDYWGQGTQVTVSS | high polyreactivity |
| QVQLVESGGGLVQAGGSLRLSCAASGSIFYVNAMGWYRQAPGKERELVAVNADSVKGRFTISRDNAKNTVYLQMNSLKPEDTAVYYCAAGVNSTTRIYDYWGQGTQVTVSS | low polyreactivity |
| QVQLVESGGGLVQAGGSLRLSCAASGSIFYVNAMGWYRQEPGKERELVAAISYRGGSTYYADSVKGRFTISRDNAKNTVYLQMNSLKPEDTSVYYCAKRLYGSYHSDYWGQGTQVTVSS | high polyreactivity |
| QVQLVESGGGLVQAGGSLRLSCAASGSIFYVNTIGWYRQAPGKERELVAGITSRGGSTYYADSVKGRFTISRDNAKNTVYLQMNSLKPEDTAVYYCAKRAYGTALYRGYGYWGQGTQVTVSS | low polyreactivity |
| QVQLVESGGGLVQAGGSLRLSCAASGSIFYVNTMGWYRQAPGKERELVAVIDYGGDSTYYADSVKGRFTISRDNAKNTVYLQMNSLKPEDTAVYYCAADAWLLPYNYWGQGTQVTVSS | low polyreactivity |
| QVQLVESGGGLVQAGGSLRLSCAASGSIFYVYAMGWSRQAPGKERELVASITRRRTNYADSVKGRFTISRDTAKNTVYLQMNSLKPEDTAVYYCAATTYVRQYATYDYWGQGTQVTVSS | high polyreactivity |
| QVQLVESGGGLVQAGGSLRLSCAASGSIFYWNAMGWYRQAPGKERELVAAINYSGDSTYYADSVKGRFTISRDNAKNTVYLQMNSLKPEDTEVYYCNFDYWGQGTQVTVSS | low polyreactivity |
| QVQLVESGGGLVQAGGSLRLSCAASGSIFYWNAMGWYRQAPGKERELVAAISYNGGSTYYADSVKGRFTISRDNAKNTVYLQMNSLKPEDTAVYYCAADNYYYGYEYWGQGTQVTVSS | high polyreactivity |
| QVQLVESGGGLVQAGGSLRLSCAASGSIFYWYAMGWYRQAPGKERELVAAISSSNDSTDYADSVKGRFTISRDNAKNTVYLQMNSLKPEDTAVYYCAARYGTIQYDYWGQGTQVTVSS | low polyreactivity |
| QVQLVESGGGLVQAGGSLRLSCAASGSIFYWYAMGWYRQAPGKERELVAAITRAGSTNYADSVKGRFTISRDNAKNTVYLQMNSLKPEDTAVYYCAVAVTSYSSKKLYYWGQGTQVTVSS | low polyreactivity |
| QVQLVESGGGLVQAGGSLRLSCAASGSIFYYAMGWYRQAPGKERELVAAITTGDGTNYADSVKGRFTISRDNAKNTVYLQMNSLKPEDTAVYYCNSLPYQVWKRYSWGQGTQVTVSS | low polyreactivity |
| QVQLVESGGGLVQAGGSLRLSCAASGSIFYYAMGWYRQAPGKERELVATITRRGGRTHYADSVKGRFTLSRDNAKNTVYLQMNSLKPEDTAVYYCAADSYSYRYYYWGQGTQVTVSS | high polyreactivity |
| QVQLVESGGGLVQAGGSLRLSCAASGSIFYYNAMGWYRQAPGKERELVATIRTSGGSTYYADSVKGRFTISRDNAKNTVYLQMNSLKPEDTAVYYCAARDLRKLYSRYPYYYWGQGTQVTVSS | high polyreactivity |
| QVQLVESGGGLVQAGGSLRLSCAASGSIFYYNAMGWYRQAPGKERELVATITSAVSTNYADSVKWRFTISRDNAKNTVYLQMNSLKPEDTAVYYCAADVVYISGYDYWGQGTQVTVSS | low polyreactivity |

Source: the nanobody polyreactivity screen of Harvey et al. (2022)
